According to US20220235103A1 (Molecular Partners, published 2022):

Experiments:
Assay in all cases: cell-based or functional assay
[1] = target: spike protein of live SARS-CoV-2 (2019-nCoV/IDF0372/2020) (SARS-CoV-2, UniProt P0DTC2 14-1273)
[2] = target: T1, SARS-CoV-2 spike protein, wild type (Wuhan) (SARS-CoV-2, UniProt P0DTC2 14-1273)
[3] = target: T2, SARS-CoV-2 spike protein D614G (SARS-CoV-2, UniProt P0DTC2 14-1273)
[4] = target: T3, SARS-CoV-2 spike protein G476S (SARS-CoV-2, UniProt P0DTC2 14-1273)
[5] = target: T4, SARS-CoV-2 spike protein V483A (SARS-CoV-2, UniProt P0DTC2 14-1273)
[6] = target: SARS-CoV-2 spike protein D614G x Q675H (SARS-CoV-2, UniProt P0DTC2 14-1273)
[7] = target: T1, SARS-CoV-2 spike protein, wild type …; remark: listed apart in the source
[8] = target: SARS-CoV-2 spike protein variant B.1.351 (SARS-CoV-2, UniProt P0DTC2 14-1273)
[9] = target: SARS-CoV-2 spike protein N501Y (SARS-CoV-2, UniProt P0DTC2 14-1273)
[10] = target: SARS-CoV-2 spike protein E484K (SARS-CoV-2, UniProt P0DTC2 14-1273)
[11] = target: SARS-CoV-2 spike protein K417E (SARS-CoV-2, UniProt P0DTC2 14-1273)
[12] = target: SARS-CoV-2 spike protein Y453F (SARS-CoV-2, UniProt P0DTC2 14-1273)
[13] = target: T2, SARS-CoV-2 spike protein D614G; remark: listed apart in the source
[14] = target: SARS-CoV-2 spike protein S477N (SARS-CoV-2, UniProt P0DTC2 14-1273)
[15] = target: SARS-CoV-2 spike protein N439K (SARS-CoV-2, UniProt P0DTC2 14-1273)
[16] = target: SARS-CoV-2 spike protein A222V (SARS-CoV-2, UniProt P0DTC2 14-1273)
[17] = target: SARS-CoV-2 spike protein G446V (SARS-CoV-2, UniProt P0DTC2 14-1273)
[18] = target: T3, SARS-CoV-2 spike protein G476S; remark: listed apart in the source
[19] = target: SARS-CoV-2 spike protein T478I (SARS-CoV-2, UniProt P0DTC2 14-1273)
[20] = target: SARS-CoV-2 spike protein P479S (SARS-CoV-2, UniProt P0DTC2 14-1273)
[21] = target: T4, SARS-CoV-2 spike protein V483A; remark: listed apart in the source
[22] = target: SARS-CoV-2 spike protein F486V (SARS-CoV-2, UniProt P0DTC2 14-1273)
[23] = target: SARS-CoV-2 spike protein Q493K (SARS-CoV-2, UniProt P0DTC2 14-1273)
[24] = target: SARS-CoV-2 spike protein F490S (SARS-CoV-2, UniProt P0DTC2 14-1273)
[25] = target: T1, SARS-CoV-2 spike protein, wild type …; remark: listed apart in the source

B1: ALE049 (designed binder)
chain: MRGSHHHHHHGSDLGKKLLEAARAGQDDEVRELLKAGADVNAKDYFSHTPLHLAARNGHLKIVEVLLKAGADVNAKDFAGKTPLHLAANEGHLEIVEVLLKAGADVNAQDIFGKTPADIAADAGHEDIAEVLQKAAGSPTPTPTTPTPTPTTPTPTPTGSDLGKKLLEAARAGQDDEVRELLKAGADVNAKDYFSHTPLHLAARNGHLKIVEVLLKAGADVNAKDFAGKTPLHLAANEGHLEIVEVLLKAGADVNAQDIFGKTPADIAADAGHEDIAEVLQKAAGSPTPTPTTPTPTPTTPTPTPTGSDLGKKLLQAARAGQLDEVRELLKAGADVNAKDREGITPLHLAAQHGHLEIVEVLLKAGADVNAKDVWGRTPLHLAAWQGHLEIVEVLLKAGADVNAKDLAGATPLHVAALYGHLEIVEVLLKAGADVNAQDKSGKTPADLAARAGHQDIAEVLQKAAGSPTPTPTTPTPTPTTPTPTPTGSDLGKKLLQAARAGQLDEVRELLKAGADVNAKDREGKTPLHVAAQEGHLEIVEVLLKAGADVNAKDVWGRTPLHLAAWIGHLEIVEVLLKAGADVNAKDVSGATPLHAAALHGHLEIVEVLLNAGADVNAQDKSGKTPADLAARAGHQDIAEVLQKAAGSPTPTPTTPTPTPTTPTPTPTGSDLGKKLLQAARAGQLDEVRELLKAGADVNAKDQEGITPLHVAAHQGHLEIVEVLLKAGADVNAKDVWGRTPLHLAAWRGHLEIVEVLLKAGADVNAKDHAGATPLHAAALSGHLEIVEVLLKAGADVNAQDKSGKTPADLAARAGHQDIAEVLQKAA
- IC50 LV (live virus cytopathic effect assay) [1]: 25 pM
- Potency of inhibition of SARS-CoV-2 spike protein variants (IC50) [2]: 16.5 pM
- Potency of inhibition of SARS-CoV-2 spike protein variants (IC50) [3]: 11.8 pM
- Potency of inhibition of SARS-CoV-2 spike protein variants (IC50) [4]: 27.1 pM
- Potency of inhibition of SARS-CoV-2 spike protein variants (IC50) [5]: 27.5 pM
- Potency of inhibition of SARS-CoV-2 spike protein variants (IC50) [6]: 12.1 pM
- VSV Pseudotype Neutralization Assay IC50 [7]: 1 ng/mL
- VSV Pseudotype Neutralization Assay IC50 [8]: 3 ng/mL
- VSV Pseudotype Neutralization Assay IC50 [9]: 0.5 ng/mL
- VSV Pseudotype Neutralization Assay IC50 [10]: 2.7 ng/mL
- VSV Pseudotype Neutralization Assay IC50 [11]: 0.5 ng/mL
- VSV Pseudotype Neutralization Assay IC50 [12]: 3.2 ng/mL
- VSV Pseudotype Neutralization Assay IC50 [13]: 2.4 ng/mL
- VSV Pseudotype Neutralization Assay IC50 [14]: 1.9 ng/mL
- VSV Pseudotype Neutralization Assay IC50 [15]: 1.3 ng/mL
- VSV Pseudotype Neutralization Assay IC50 [16]: 2.2 ng/mL
- VSV Pseudotype Neutralization Assay IC50 [17]: 1.7 ng/mL
- VSV Pseudotype Neutralization Assay IC50 [18]: 1.5 ng/mL
- VSV Pseudotype Neutralization Assay IC50 [19]: 2.7 ng/mL
- VSV Pseudotype Neutralization Assay IC50 [20]: 2.1 ng/mL
- VSV Pseudotype Neutralization Assay IC50 [21]: 2.3 ng/mL
- VSV Pseudotype Neutralization Assay IC50 [22]: > 100 ng/mL
- VSV Pseudotype Neutralization Assay IC50 [23]: 7.9 ng/mL
- VSV Pseudotype Neutralization Assay IC50 [24]: 3.8 ng/mL
- IC50 (read off the curve), SARS-CoV-2 VSV pseudotype virus, no competitor [25]: ~0.1 nM
